Experimental data taken from paper PMC6376876.

Tested on: CC(=O)Oc1ccc([N+](=O)[O-])cc1
Assay: purified protein

LsALDH16 (Loktanella sp. 3ANDIMAR09)
Km: 1740 µM | Vmax: 7.9 µmol/min/mg | kcat: 10.6 ± 1.6 s⁻¹ | kcat/Km: 6000 ± 2000 M⁻¹ s⁻¹
